Laboratory results published in the supplement of paper PMC9112550, “Optimization of the antimicrobial peptide Bac7 by deep mutational scanning” (BMC Biology, 2022).

tested on: Escherichia coli TOP10; assay: shrunken log2 fold change of peptide-encoding DNA abundance (4.5 h post-induction vs induction); higher = less antimicrobial activity (less host growth inhibition); conditions: time post-induction: 4.5 h; library: site-saturation at positions 5, 18, 19, 20
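Further: peptides expressed intracellularly from a pBAD plasmid library in pooled LB shake-flask culture, induced with 0.3% L-arabinose, DNA abundance read by NGS, three biological replicates, DESeq2 with apeglm shrinkage.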

| Sequence | shrunken log2 fold change |
| --- | --- |
| RRIRERPPRLPRPRPRPRIVPRP | -0.0184 |
| RRIRRRPPRLPRPRPRPPMVPRP | 0.285 |
| RRIRWRPPRLPRPRPRPPDVPRP | 0.235 |
| RRIRVRPPRLPRPRPRPQKLPRP | -0.0565 |
| RRIRDRPPRLPRPRPRPCENPRP | 0.0231 |
| RRIRDRPPRLPRPRPRPYWIPRP | -0.296 |
| RRIRQRPPRLPRPRPRPLGQPRP | 0.125 |
| RRIRKRPPRLPRPRPRPLVFPRP | -0.0076 |
| RRIRMRPPRLPRPRPRPTFNPRP | -0.283 |
| RRIRFRPPRLPRPRPRPCENPRP | 0.015 |
| RRIRWRPPRLPRPRPRPCARPRP | 0.0277 |
| RRIRERPPRLPRPRPRPCRPPRP | -0.00126 |
| RRIRSRPPRLPRPRPRPAKMPRP | -0.0464 |
| RRIRARPPRLPRPRPRPLDEPRP | 1.53 |
| RRIRVRPPRLPRPRPRPGYVPRP | -0.351 |
| RRIRWRPPRLPRPRPRPESGPRP | 0.347 |
| RRIRFRPPRLPRPRPRPVCWPRP | 0.399 |
| RRIRYRPPRLPRPRPRPMRFPRP | 0.0781 |
| RRIRQRPPRLPRPRPRPAQEPRP | 0.852 |
| RRIRVRPPRLPRPRPRPTNSPRP | -0.436 |
| RRIRQRPPRLPRPRPRPRFNPRP | -0.244 |
| RRIRNRPPRLPRPRPRPLCDPRP | 0.0696 |
| RRIRTRPPRLPRPRPRPCACPRP | 0.0169 |
| RRIRGRPPRLPRPRPRPWDCPRP | -0.0637 |
| RRIRMRPPRLPRPRPRPCYLPRP | 0.0715 |

| Sequence | shrunken log2 fold change |
| --- | --- |
| RRIRQRPPRLPRPRPRPENEPRP | 0.0608 |
| RRIRFRPPRLPRPRPRPNSNPRP | -0.996 |
| RRIRPRPPRLPRPRPRPFKDPRP | -0.93 |
| RRIRKRPPRLPRPRPRPLKPPRP | 0.238 |
| RRIRNRPPRLPRPRPRPIYKPRP | -0.414 |
| RRIRMRPPRLPRPRPRPFIAPRP | -0.251 |
| RRIRHRPPRLPRPRPRPPQNPRP | 0.613 |
| RRIRIRPPRLPRPRPRPQEYPRP | -0.312 |
| RRIRQRPPRLPRPRPRPTTMPRP | -0.11 |
| RRIRPRPPRLPRPRPRPCFHPRP | -0.202 |
| RRIRSRPPRLPRPRPRPKEIPRP | -0.0586 |
| RRIRFRPPRLPRPRPRPVRAPRP | 0.495 |
| RRIRSRPPRLPRPRPRPFYDPRP | -0.254 |
| RRIRCRPPRLPRPRPRPHWSPRP | -0.395 |
| RRIRVRPPRLPRPRPRPQDEPRP | -0.114 |
| RRIRPRPPRLPRPRPRPHAGPRP | 1.77 |
| RRIRRRPPRLPRPRPRPDSPPRP | 0.28 |
| RRIRPRPPRLPRPRPRPMPKPRP | 0.409 |
| RRIRNRPPRLPRPRPRPGMTPRP | -0.257 |
| RRIRLRPPRLPRPRPRPMYGPRP | -0.179 |
| RRIRNRPPRLPRPRPRPAFKPRP | -0.0432 |
| RRIRGRPPRLPRPRPRPSDRPRP | 0.137 |
| RRIRSRPPRLPRPRPRPTAHPRP | 0.284 |
| RRIRQRPPRLPRPRPRPGERPRP | 0.0849 |
| RRIRRRPPRLPRPRPRPDMCPRP | 0.019 |

| Sequence | shrunken log2 fold change |
| --- | --- |
| RRIRKRPPRLPRPRPRPHNEPRP | 0.323 |
| RRIRGRPPRLPRPRPRPVVRPRP | 0.602 |
| RRIRLRPPRLPRPRPRPRAGPRP | 0.557 |
| RRIRARPPRLPRPRPRPAAVPRP | 0.8 |
| RRIRDRPPRLPRPRPRPNNGPRP | -0.0483 |
| RRIRRRPPRLPRPRPRPWIDPRP | -0.0585 |
| RRIRFRPPRLPRPRPRPCVDPRP | 0.0365 |
| RRIRFRPPRLPRPRPRPIIDPRP | -1.61 |
| RRIRNRPPRLPRPRPRPWYRPRP | -0.117 |
| RRIRVRPPRLPRPRPRPKKWPRP | -0.00649 |
| RRIRFRPPRLPRPRPRPFHEPRP | -0.649 |
| RRIRSRPPRLPRPRPRPRELPRP | 0.0421 |
| RRIRPRPPRLPRPRPRPMASPRP | 0.011 |
| RRIRGRPPRLPRPRPRPTCHPRP | 0.893 |
| RRIRQRPPRLPRPRPRPFTQPRP | -0.0608 |
| RRIRARPPRLPRPRPRPPLCPRP | 0.762 |
| RRIRIRPPRLPRPRPRPWWYPRP | -0.179 |
| RRIRSRPPRLPRPRPRPYWFPRP | -0.624 |
| RRIRDRPPRLPRPRPRPFPRPRP | -0.135 |
| RRIRARPPRLPRPRPRPMDCPRP | 0.181 |
| RRIRKRPPRLPRPRPRPQLFPRP | 0.364 |
| RRIRHRPPRLPRPRPRPLQAPRP | -0.279 |
| RRIRRRPPRLPRPRPRPMQVPRP | -0.198 |
| RRIRERPPRLPRPRPRPLIHPRP | -0.522 |
| RRIRGRPPRLPRPRPRPFYMPRP | -0.0339 |

| Sequence | shrunken log2 fold change |
| --- | --- |
| RRIRVRPPRLPRPRPRPARAPRP | 0.566 |
| RRIRDRPPRLPRPRPRPDVYPRP | -0.00822 |
| RRIRNRPPRLPRPRPRPMAIPRP | -0.00192 |
| RRIRMRPPRLPRPRPRPNYWPRP | -0.0168 |
| RRIRLRPPRLPRPRPRPYWKPRP | -0.0713 |
| RRIRMRPPRLPRPRPRPCCPPRP | -0.0946 |
| RRIRSRPPRLPRPRPRPPMLPRP | 0.0967 |
| RRIRCRPPRLPRPRPRPSPVPRP | 0.00196 |
| RRIRWRPPRLPRPRPRPTHPPRP | 0.709 |
| RRIRWRPPRLPRPRPRPIPWPRP | -0.0329 |
| RRIRIRPPRLPRPRPRPKSQPRP | -0.0352 |
| RRIRKRPPRLPRPRPRPVFKPRP | 0.288 |
| RRIRIRPPRLPRPRPRPVIEPRP | -0.121 |
| RRIRCRPPRLPRPRPRPDFKPRP | -0.219 |
| RRIRPRPPRLPRPRPRPLFDPRP | 0.0231 |
| RRIRNRPPRLPRPRPRPLAWPRP | 0.00628 |
| RRIRPRPPRLPRPRPRPPLDPRP | 0.517 |
| RRIRTRPPRLPRPRPRPYHMPRP | -0.293 |
| RRIRSRPPRLPRPRPRPFVGPRP | -0.222 |
| RRIRGRPPRLPRPRPRPCNTPRP | 0.00375 |
| RRIRERPPRLPRPRPRPRPPPRP | 0.69 |
| RRIRSRPPRLPRPRPRPLISPRP | -0.173 |
| RRIRGRPPRLPRPRPRPQCFPRP | 0.352 |
| RRIRFRPPRLPRPRPRPMERPRP | -0.208 |
| RRIRHRPPRLPRPRPRPWQYPRP | -0.17 |

| Sequence | shrunken log2 fold change |
| --- | --- |
| RRIRWRPPRLPRPRPRPVATPRP | 0.991 |
| RRIRRRPPRLPRPRPRPRRGPRP | 0.788 |
| RRIRWRPPRLPRPRPRPEWNPRP | 0.482 |
| RRIRIRPPRLPRPRPRPKLKPRP | -0.688 |
| RRIRCRPPRLPRPRPRPFDMPRP | -0.309 |
| RRIRLRPPRLPRPRPRPRALPRP | 2.21 |
| RRIRFRPPRLPRPRPRPIPHPRP | -0.31 |
| RRIRFRPPRLPRPRPRPYDQPRP | -0.0152 |
| RRIRMRPPRLPRPRPRPWIIPRP | -0.0943 |
| RRIRSRPPRLPRPRPRPPHVPRP | 0.113 |
| RRIRPRPPRLPRPRPRPKKKPRP | -0.192 |
| RRIRWRPPRLPRPRPRPSHNPRP | -0.596 |
| RRIRTRPPRLPRPRPRPCICPRP | -0.119 |
| RRIRTRPPRLPRPRPRPPWLPRP | 0.547 |
| RRIRKRPPRLPRPRPRPGDNPRP | 0.046 |
| RRIRDRPPRLPRPRPRPIAWPRP | 0.0633 |
| RRIRRRPPRLPRPRPRPELIPRP | 0.0314 |
| RRIRYRPPRLPRPRPRPGDQPRP | 0.0121 |
| RRIRYRPPRLPRPRPRPALTPRP | -0.044 |
| RRIRNRPPRLPRPRPRPCMLPRP | -0.306 |
| RRIRPRPPRLPRPRPRPRHQPRP | 0.31 |
| RRIRWRPPRLPRPRPRPSHKPRP | -0.193 |
| RRIRNRPPRLPRPRPRPHMYPRP | 0.0526 |
| RRIRCRPPRLPRPRPRPRISPRP | -0.248 |
| RRIRQRPPRLPRPRPRPGEEPRP | 0.0331 |
